Target: ADDomer-SpyTag (ADD-ST) particle (human adenovirus type 3)
Test: covalent adduct on SDS-PAGE

With SpyCatcher (SC) (designed binder) the stoichiometry N (copies per particle) was 60.
